Paper PMC12657314, “Structural modeling and biochemical characterization of MSMEG_0748, a MoxR ATPase from Mycobacterium smegmatis” (Computational and Structural Biotechnology Journal, 2025)
Changes are numbered by the printed parent chain. Names may count otherwise.

B1: MSMEG_0748 (Mycolicibacterium smegmatis MC2 155) (protein)
chain: MRMAAEPGAAVTGFGGVDDVVRRFDAHDYLLDEGTATAIYLAVSLGRPLLLEGEPGVGKTTAAKTLAAVLGTPLIRLQCYEGLTASEALYDWNYQRQLLSIRLAEARGGEHLDEAALYTESYLVDRPILQCVRHRGPSSPVLLVDEIDRADDEFEALLLEFLGEAAVTVPELGTFVAERPPVVVLTSNRSRDLHDALRRRCLYHWIEYPQRAQAVAIVRRTVPGATDALIDSAVQFVSAARELDLDKPPGVAETIDWVAALVALRVGDLVDPAALGTLGALAKTPDDSGLMRDALLDLTN
notes: full length, N-terminal His-tag cut off by rTEV protease, expressed in E. coli BL21(DE3)
B2: MSMEG_0748 (Mycolicibacterium smegmatis MC2 155; E146Q) (protein)
chain: B1 chain with E146Q
notes: as for B1
B3: MSMEG_0748 (MoxR-type AAA+ ATPase from Mycobacterium smegmatis mc2 155), recombinant, tag-cleaved (enzyme, UniProt A0QQG6 1-300, looked up)
chain: B1 chain
notes: MSMEG_0748, MoxR-type AAA+ ATPase, Mycobacterium smegmatis mc2 155, UniProt A0QQG6; amplified from genomic DNA into pProEX-HTa; full-length protein of about 32.7 kDa after removal of the His tag by rTEV protease; also called wild-type MSMEG_0748; MoxR ATPase; source: E. coli BL21(DE3), purified (Ni-NTA, TEV cleavage, second Ni-NTA, SEC on Superdex 200); not shown: His-tag, N-terminal, cleaved

What was measured:
purified protein = substrate: Nc1ncnc2c1ncn2[C@@H]1O[C@H](COP(=O)(O)OP(=O)(O)OP(=O)(O)O)[C@@H](O)[C@H]1O; experiment: purified protein; format: biochemical, Mycolicibacterium smegmatis; conditions: 50 mM Tris-HCl pH 8.0, 150 mM KCl, 2 mM MgCl2, 2 mM DTT, 30 °C, 200 nM protein
[1] = target: the molecule itself; experiment: SEC-MALS; Superdex 200 Increase 10/300 GL, 5 mg/mL protein injected, 20 mM Tris-HCl pH 7.5, 300 mM NaCl, 0.5 mM TCEP, flow 0.5 mL/min; DAWN Heleos II detector

| Protein | Km (purified protein) | kcat (purified protein) | stoichiometry N [1] |
| --- | --- | --- | --- |
| B1 | 0.6951 µM | 0.0251 S^−1 | – |
| B2 | 0.9024 µM | 0.0189 S^−1 | – |
| B3 | – | – | 6 |
